According to US20020168748:

T1: CaRho1 (Candida Rho1-like GTPase)
T1 chain: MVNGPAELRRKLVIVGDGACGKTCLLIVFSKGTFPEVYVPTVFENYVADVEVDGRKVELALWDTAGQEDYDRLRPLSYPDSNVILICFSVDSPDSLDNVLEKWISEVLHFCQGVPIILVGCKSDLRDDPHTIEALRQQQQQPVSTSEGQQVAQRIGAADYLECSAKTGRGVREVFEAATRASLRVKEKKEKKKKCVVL

T2: peptide GKKKKKKSKTKCVIM (C-terminus of K-ras4B)
T2 chain: GKKKKKKSKTKCVIM

T3: peptide RVKEKKEKKKKCVVL (C-terminus of CaRho1)
T3 chain: RVKEKKEKKKKCVVL

T4: peptide GCVLL
T4 chain: GCVLL

T5: peptide LQARRGKKKSGCLVL (C-terminus of huRhoA)
T5 chain: LQARRGKKKSGCLVL


Columns and labels:
[1] = target: T1, CaRho1 (Candida Rho1-like GTPase)
[2] = target: T2, peptide GKKKKKKSKTKCVIM (C-terminus of …)
[3] = target: T3, peptide RVKEKKEKKKKCVVL (C-terminus of …)
peptide GCVLL = target: T4, peptide GCVLL
[4] = target: T5, peptide LQARRGKKKSGCLVL (C-terminus of …)
[5] = target: 1,3-β-glucan synthase (GS) complex, P38631
Chain of 1,3-β-glucan synthase (GS) complex, P38631 (P38631 whole entry, looked up, one chain of several): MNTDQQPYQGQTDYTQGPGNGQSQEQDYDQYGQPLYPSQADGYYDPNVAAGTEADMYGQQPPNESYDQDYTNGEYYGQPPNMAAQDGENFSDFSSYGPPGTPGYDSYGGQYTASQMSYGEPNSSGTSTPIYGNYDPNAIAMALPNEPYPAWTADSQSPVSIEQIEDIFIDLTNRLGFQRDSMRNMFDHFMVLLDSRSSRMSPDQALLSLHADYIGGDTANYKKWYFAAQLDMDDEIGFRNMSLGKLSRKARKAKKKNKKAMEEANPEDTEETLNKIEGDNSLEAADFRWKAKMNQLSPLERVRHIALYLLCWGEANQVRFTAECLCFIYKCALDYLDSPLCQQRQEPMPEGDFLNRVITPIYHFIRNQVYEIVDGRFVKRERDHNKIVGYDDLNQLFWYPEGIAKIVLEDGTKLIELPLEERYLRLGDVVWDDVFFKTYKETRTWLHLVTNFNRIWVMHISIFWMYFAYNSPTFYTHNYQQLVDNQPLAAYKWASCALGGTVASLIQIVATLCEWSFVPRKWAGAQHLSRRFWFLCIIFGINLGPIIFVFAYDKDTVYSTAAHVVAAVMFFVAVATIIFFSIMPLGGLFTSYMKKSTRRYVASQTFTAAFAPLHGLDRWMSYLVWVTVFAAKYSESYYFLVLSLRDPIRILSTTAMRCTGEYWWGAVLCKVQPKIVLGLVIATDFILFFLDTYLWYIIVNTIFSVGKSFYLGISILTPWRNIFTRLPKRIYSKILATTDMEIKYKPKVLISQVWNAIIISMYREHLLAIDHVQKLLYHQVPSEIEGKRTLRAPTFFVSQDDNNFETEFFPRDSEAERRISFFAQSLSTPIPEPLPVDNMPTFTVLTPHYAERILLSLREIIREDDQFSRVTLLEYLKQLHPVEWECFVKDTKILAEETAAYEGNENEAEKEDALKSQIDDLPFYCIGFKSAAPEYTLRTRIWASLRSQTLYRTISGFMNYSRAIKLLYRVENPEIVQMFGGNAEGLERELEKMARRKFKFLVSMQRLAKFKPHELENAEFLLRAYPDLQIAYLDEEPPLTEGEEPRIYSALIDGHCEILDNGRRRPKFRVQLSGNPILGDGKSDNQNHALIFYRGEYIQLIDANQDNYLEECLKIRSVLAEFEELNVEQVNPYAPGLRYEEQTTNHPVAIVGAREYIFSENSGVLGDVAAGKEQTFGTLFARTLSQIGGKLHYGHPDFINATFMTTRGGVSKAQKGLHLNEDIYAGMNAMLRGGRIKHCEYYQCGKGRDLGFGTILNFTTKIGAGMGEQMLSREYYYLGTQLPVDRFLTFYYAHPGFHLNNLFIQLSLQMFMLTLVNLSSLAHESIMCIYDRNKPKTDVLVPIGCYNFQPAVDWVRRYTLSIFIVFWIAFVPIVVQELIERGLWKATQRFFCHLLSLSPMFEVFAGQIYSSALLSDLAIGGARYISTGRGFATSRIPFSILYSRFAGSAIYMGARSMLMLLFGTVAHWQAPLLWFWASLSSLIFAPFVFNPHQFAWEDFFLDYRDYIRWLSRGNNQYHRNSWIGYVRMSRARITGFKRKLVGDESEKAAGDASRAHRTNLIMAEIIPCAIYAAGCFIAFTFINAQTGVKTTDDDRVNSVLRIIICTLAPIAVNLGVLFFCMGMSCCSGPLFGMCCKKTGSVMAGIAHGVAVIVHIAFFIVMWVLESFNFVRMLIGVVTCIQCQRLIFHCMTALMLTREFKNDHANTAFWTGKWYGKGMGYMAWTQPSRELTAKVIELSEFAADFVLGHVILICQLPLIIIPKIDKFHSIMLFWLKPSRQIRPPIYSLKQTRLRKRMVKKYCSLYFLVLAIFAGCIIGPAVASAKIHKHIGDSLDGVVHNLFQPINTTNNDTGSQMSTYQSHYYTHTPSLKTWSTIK

Chain of human RhoA, P61586 (P61586 whole entry): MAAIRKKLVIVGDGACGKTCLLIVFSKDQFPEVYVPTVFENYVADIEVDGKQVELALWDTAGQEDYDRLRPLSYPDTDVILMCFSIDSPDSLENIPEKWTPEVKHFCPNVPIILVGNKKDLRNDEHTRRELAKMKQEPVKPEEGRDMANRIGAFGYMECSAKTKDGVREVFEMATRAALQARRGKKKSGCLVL
Chain of H-RasCVLL, P01112 (P01112 whole entry, looked up): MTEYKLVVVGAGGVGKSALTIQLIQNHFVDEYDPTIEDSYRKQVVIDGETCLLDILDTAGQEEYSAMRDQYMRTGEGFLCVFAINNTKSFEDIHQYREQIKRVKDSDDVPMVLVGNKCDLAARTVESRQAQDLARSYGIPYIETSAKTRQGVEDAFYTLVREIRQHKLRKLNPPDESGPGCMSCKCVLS

Protein | Km [1] [µM] | Km (H-RasCVLL, P01112) | Km (human RhoA, P61586) | prenylation of the peptide [2] | prenylation of the peptide [3] | prenylation of the peptide (peptide GCVLL) | prenylation of the peptide [4] | GS activity in rho1-3 membrane fractions at 37° C. [5] | GS activity in rho1-3 membranes complemented with GST-Rho1 [5]
Candida GGTase (CaGGTase), geranylgeranyl protein transferase I purified from Candida cells (protein) chain 1: MTDSKYDYSDITPVDINTEEPQICQILYDEDYKQIMGLLLALMKAEEYSERALHITELGINELASHYTIWIYRFNILKNLPNRNLYDELDWCEEIALDNEKNYQIWNYRQLIIGRIMELNNNDFDPYREFLILEAMLSSDPKNHHVWSYRKWLVDTFDLHNDAKELSFVDKVIDTDLKNNSAWSHRFFLLFSKKHLATDNTIDEELNYVKDKIVKCPQNPSTWNYLLGIHERFDRSITQLEEFSLQFVDLEKDQVTSSFALETLAKIYTQQKKYNEARTVYDLLKSKYDPIRSNFWDYQISKLTSV chain 2: MNQLLINKHEKFFNRCLIGLPSTAQSEDSNKLAIIYFCLHGLQLIQKFQFTNQELIYYRNFIINQFMIENNQIISFRSTHYFQKTNQKYDCPNLSSTLFALYNLLILKSPYHTIINRKKIMNFLCKCQVKDGINKGGFVPTLYYDEENGDYKQYGEPDLRVCYMALLIRHLMKYDDNNNNNNREDSNETDIDLISLQQFILDRININGGFSSTIMDESHLGFTFCAIASLKLLNYPLEKLKSTKEWLIHRQVDYPENLYPKDGNGDNYEYYRNIDIGGFNGRENKLSDTCYSWWCTGSLYNIDVNFIKLVDLNKAEDYLLNKTQNQLFGGFGRDPDSTPDPMHSYLALASLSLWNHEKFALQEINPILTITKELYQFFKEEIKY | 250 | NS* | NS | + | + |  |  |  | 
S. cerevisiae GGTase (ScGGTase) (protein) chain 1: MEEYDYSDVKPLPIETDLQDELCRIMYTEDYKRLMGLARALISLNELSPRALQLTAEIIDVAPAFYTIWNYRFNIVRHMMSESEDTVLYLNKELDWLDEVTLNNPKNYQIWSYRQSLLKLHPSPSFKRELPILKLMIDDDSKNYHVWSYRKWCCLFFSDFQHELAYASDLIETDIYNNSAWTHRMFYWVNAKDVISKVELADELQFIMDKIQLVPQNISPWTYLRGFQELFHDRLQWDSKVVDFATTFIGDVLSLPIGSPEDLPEIESSYALEFLAYHWGADPCTRDNAVKAYSLLAIKYDPIRKNLWHHKINNLN chain 2: MCQATNGPSRVVTKKHRKFFERHLQLLPSSHQGHDVNRMAIIFYSISGLSIFDVNVSAKYGDHLGWMRKHYIKTVLDDTENTVISGFVGSLVMNIPHATTINLPNTLFALLSMIMLRDYEYFETILDKRSLARFVSKCQRPDRGSFVSCLDYKTNCGSSVDSDDLRFCYIAVAILYICGCRSKEDFDEYIDTEKLLGYIMSQQCYNGAFGAHNEPHSGYTSCALSTLALLSSLEKLSDKFKEDTITWLLHRQVSSHGCMKFESELNASYDQSDDGGFQGRENKFADTCYAFWCLNSLHLLTKDWKMLCQTELVTNYLLDRTQKTLTGGFSKNDEEDADLYHSCLGSAALALIEGKFNGELCIPQEIFNDFSKRCCF | 80 | NS | < 100 µM | + | + | Human GGTase can prenylate peptides that lack the polylysine region, whereas the fungal GGTases can not | + |  | 
Recombinant glutathione-S-transferase (GST)-Rho1, preloaded with GTPγS (protein) MSQQVGNSIRRKLVIVGDGACGKTCLLIVFSKGQFPEVYVPTVFENYVADVEVDGRRVELALWDTAGQEDYDRLRPLSYPDSNVVLICFSIDLPDSLENVQEKWIAEVLHFCQGVPIILVGCKVDLRNDPQTIEQLRQEGQQPVTSQEGQSVADQIGATGYYECSAKTGYGVREVFEAATRASLMGKSKTNGKAKKNTTEKKKKKCVLL |  |  |  |  |  |  |  | GS activity was restored fully by the addition of GTPγS-bound GST-Rho1 | 
Recombinant glutathione-S-transferase (GST)-Rho1, preloaded with GDP (protein) MSQQVGNSIRRKLVIVGDGACGKTCLLIVFSKGQFPEVYVPTVFENYVADVEVDGRRVELALWDTAGQEDYDRLRPLSYPDSNVVLICFSIDLPDSLENVQEKWIAEVLHFCQGVPIILVGCKVDLRNDPQTIEQLRQEGQQPVTSQEGQSVADQIGATGYYECSAKTGYGVREVFEAATRASLMGKSKTNGKAKKNTTEKKKKKCVLL |  |  |  |  |  |  |  |  | GTPγS could be replaced with GTP, but not GDP
